Measured values reported in patent publication US20110130348.

Legend:
[1] = biological target: T1, synthetic LAP2 peptide (Lp1A acceptor peptide 2)
T1 chain: GFEIDKVWYDLDA

[2] = biological target: T2, LAP1 (rationally designed Lp1A acceptor peptide)
T2 chain: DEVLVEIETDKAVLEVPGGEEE

[3] = biological target: LAP2-HP1 fusion protein (LAP2 at the N-terminus of HP1)
[4] = biological target: HP1 with LAP2 fused to its C-terminus (LAP2-C)

B1: Escherichia coli lipoic acid ligase (Lp1A) (protein)
chain: MSTLRLLISDSYDPWFNLAVEECIFRQMPATQRVLFLWRNADTVVIGRAQNPWKECNTRRMEEDNVRLARRSSGGGAVFHDLGNTCFTFMAGKPEYDKTISTSIVLNALNALGVSAEASGRNDLVVKTVEGDRKVSGSAYRETKDRGFHHGTLLLNADLSRLANYLNPDKKKLAAKGITSVRSRVTNLTELLPGITHEQVCEAITEAFFAHYGERVEAEIISPNKTPDLPNFAETFARQSSWEWNFGQAPAFSHLLDERFTWGGVELHFDVEKGHITRAQVFTDSLNPAPLEALAGRLQGCLYRADMLQQECEALLVDFPEQEKELRELSAWMAGAVR
- Km of Lp1A-catalyzed lipoylation (HPLC, Michaelis-Menten) [1]: 13.32 ± 1.78 µM
- catalytic efficiency (kcat/Km) for lipoic acid ligation [1]: The catalytic efficiency (kcat/Km) 0.99 µM^-1 min^-1)
- kcat of Lp1A-catalyzed lipoylation (HPLC, Michaelis-Menten) [1]: 0.22 ± 0.01 s⁻¹
- Km (estimate from HPLC measurements) [2]: the Km for LAP1 is estimated to be >200 µM
- percent conversion to lipoylated product (HPLC, 50 nM Lp1A, 1 h) [3]: As in the cellular assays, LAP2 is the best sequence
- percent conversion to lipoylated product (HPLC, 50 nM Lp1A, 1 h) [4]: When fused to the C- rather than N-terminus of HP1, the activity of LAP2 decreased somewhat, but was still higher than all other LAP sequences at the N-terminus
